Tests used:
[1] = biological target: canine IL-31Rα; assay: ELISA binding of chimeric and caninized antibodies to canine IL-31Rα; settings: FIG. 1-3, in words
Procedure: The nucleotide and deduced amino acid sequence of the HC and LC of selected rat antibodies reactive with canine IL-31Rα was determined. The amino acid sequences representing the 3 HC CDRs and 3 LC CDRs for each antibody also were determined. These CDRs were used to develop caninized antibodies that bind canine IL-31Rα ECD. The binding of caninized antibodies to IL-31Rα was determined by ELISA as follows:
• 1. Anti-Dog IgG (cFc specific)-Peroxidase (Sigma-Aldrich SAB3700109-1.5 MG) • 2. TMB-ELISA Substrate (Thermo-Fisher Cat #34028) • 3. PBS pH7.4 (Thermo-Fisher Cat #10010001) • 4. Tris Buffered Saline with Tween 20 (TBST) (Sigma-Aldrich T9039-10PAK)
• 1. Coat immunoplates by cIL-31Rα in PBS buffer at 1 μg/mL, 100 μL/well. Incubate the plates at 37° C. for 1-2 hrs or 4° C. overnight. • 2. Wash the plates 3 times by TBST buffer. • 3. Block the plates by blocking buffer (0.5% BSA in TBST) for 45-60 minutes at room temperature. • 4. Three-fold dilute anti-cIL31-Ra antibodies with blocking buffer in dilution plates and transfer the diluted antibodies into the cIL-31Rα coated plates, incubate 45-60 minutes at room temperature. • 5. Wash the plates 3 times by TBST. • 6. Add 1:2000 diluted HRP conjugated anti-dog IgG Fc into the plates, incubate 45-60 minutes at room temperature. • 7. Wash the plates 3 times by TBST. • 8. […] Read the plates by plate reader at […].

[2] = biological target: T1, canine IL-4 (canine, UniProt O77762 25-132, biotin-labeled in the Octet assay (site not stated)); assay: cell-based or functional assay
T1 sequence (looked up): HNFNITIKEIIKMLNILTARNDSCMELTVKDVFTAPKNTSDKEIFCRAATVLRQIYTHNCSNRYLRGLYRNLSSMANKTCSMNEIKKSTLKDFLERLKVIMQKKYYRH

[3] = biological target: T1, canine IL-4; assay: cell-based or functional assay; remark: listed apart in the source
[4] = biological target: T1, canine IL-4; assay: BLI (Octet); summary table, rounded from Table 3
[5] = biological target: T1, canine IL-4; assay: BLI (Octet HTX), biotin-cIL-4 on SA biosensors, fusion protein in solution, 1:1 fit
Procedure: (§1) The binding constants for the cFc fusion proteins provided in Tables 3 and 4 below, were determined using OCTET® HTX. All kinetics measurements were performed by OCTET® HTX using SA® biosensors and DATA ACQUISITION® 12.0 software. 10 μg/mL of biotin-labeled antigen, either canine IL-4 (cIL-4) or canine IL-13 (cIL-13) were loaded onto the SAR biosensors for 120 seconds. Next, the biosensors were placed into 1×pH 7.0 TBS/Casein buffer for 60 seconds for the blocking phase. For the association phase, antigen loaded biosensors were placed into 2-fold serial dilutions from 1 μM down to 15.6 nM of the wild-type, the bispecific, or the FcRn-mutant receptor Fc-fusions that recognized the cIL-4 or cIL-13 antigen in 1×pH 7.0 TBS/Casein buffer for 30 seconds. The last well was buffer alone and that sensor was used for reference sensor subtraction. Finally, the biosensors were placed into 1×pH 7.0 TBS/Casein buffer for 120 seconds for the dissociation phase. The results were then analyzed using Data Analysis 12.0 software and the curves were fitted using a 1:1 binding model.

[6] = biological target: T1, canine IL-4; assay: BLI (Octet)
Procedure: as §1

[7] = biological target: T2, canine IL-13 (canine, UniProt Q9N0W9 19-131, limits assumed, biotin-labeled in the Octet assay (site not stated)); assay: BLI (Octet)
T2 construct: Biotin-labeled and loaded on SA biosensors for the kinetics; unlabeled in the DH82 cell assay; also called cIL-13; canine Interleukin-13
T2 sequence (looked up): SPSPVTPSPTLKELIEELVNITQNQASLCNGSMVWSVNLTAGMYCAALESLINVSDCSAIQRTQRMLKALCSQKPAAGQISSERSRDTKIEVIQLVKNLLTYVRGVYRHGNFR
Procedure: as §1

[8] = biological target: T2, canine IL-13; assay: cell-based or functional assay
[9] = biological target: T2, canine IL-13; assay: cell-based or functional assay; remark: listed apart in the source
[10] = biological target: T2, canine IL-13; assay: cell-based or functional assay; remark: listed apart in the source
[11] = biological target: T2, canine IL-13; assay: BLI (Octet); summary table, rounded from Table 4
[12] = biological target: T2, canine IL-13; assay: BLI (Octet HTX), biotin-cIL-13 on SA biosensors, fusion protein in solution, 1:1 fit
Procedure: as §1

| Molecule | EC50 of binding to canine IL-31Rα compared with the corresponding chimeric antibody [1] | IL-4 IC50 (inhibition of cIL-4 mediated STAT6 phosphorylation in DH82 cells) [2] [nM] | IL-4 (IC50), summary table [3] [nM] | Kd [4] [nM] | Kd [5] [nM] | koff [5] [s⁻¹] | kon [5] [M⁻¹ s⁻¹] | fold change of KD against the unmodified cIL-4Rα-cFc homodimer [6] [fold] | fold tighter binding than the unmodified IL-13Rα1-cFc [7] [fold] | fold change of the concentration that inhibits 50% of the cIL-13 mediated STAT6 phosphorylation in DH82 cells, against cIL-13Rα1-cFc [8] [fold lower] | fold change of the concentration that inhibits 50% of the cIL-13 mediated STAT6 phosphorylation in DH82 cells, against cIL-13Rα2-cFc [8] [fold higher] | IL-13 IC50 (inhibition of cIL-13 mediated STAT6 phosphorylation in DH82 cells) [9] [nM] | IL-13 (IC50), summary table [10] [nM] | Kd [11] [nM] | Kd [12] [nM] | koff [12] [s⁻¹] | kon [12] [M⁻¹ s⁻¹] |
| --- | --- | --- | --- | --- | --- | --- | --- | --- | --- | --- | --- | --- | --- | --- | --- | --- | --- |
| c10A12 H2L6: caninized rat 10A12 anti-canine IL-31Rα antibody; likely c10A12VH2-cIgGBm (SEQ ID NO: 27) with c10A12VL6-cCl (SEQ ID NO: 31) (antibody) heavy: EVQLVESGGDLVKPGGSLRLSCAASGFTFSNYYMAWVRQAPGKGLQWVASISTGGGNTYYRDSVKGRFTISRDNAKNTLYLQMNSLRAEDTAMYYCARHGTLYFDYWGQGTLVTVSSASTTAPSVFPLAPSCGSTSGSTVALACLVSGYFPEPVTVSWNSGSLTSGVHTFPSVLQSSGLYSLSSMVTVPSSRWPSETFTCNVAHPASKTKVDKPVPKRENGRVPRPPDCPKCPAPEMLGGPSVFIFPPKPKDTLLIARTPEVTCVVVALDPEDPEVQISWFVDGKQMQTAKTQPREEQFAGTYRVVSVLPIGHQDWLKGKQFTCKVNNKALPSPIERTISKARGQAHQPSVYVLPPSREELSKNTVSLTCLIKDFFPPDIDVEWQSNGQQEPESKYRTTPPQLDEDGSYFLYSKLSVDKSRWQRGDTFICAVMHEALHNHYTQESLSHSPGK light: QPVLTQPPSLSASLGTTARLTCERSSGDIGDSYVSWYQQKPGSPPRDVIYVDDQRPSEVSKSFSGSKDTSANAGLLLISGLQPEDEADYFCQSYDSNIDGPVFGGGTHLTVLGQPKASPSVTLFPPSSEELGANKATLVCLISDFYPSGVTVAWKADGSPVTQGVETTKPSKQSNNKYAASSYLSLTPDKWKSHSSFSCLVTHEGSTVEKKVAPAECS | even lower than the EC50 for the corresponding chimeric 10A12 antibody | – | – | – | – | – | – | – | – | – | – | – | – | – | – | – | – |
| cIL-4Rα-cIgGB-Fc (Fc fusion, Homodimer held by hinge disulfides; made in CHO cells, purified on protein A; also called cIL-4Rα-cFc; cIL4Rα-cFc) VKVLHEPSCFSDYISTSVCQWKMDHPTNCSAELRLSYQLDFMGSENHTCVPENREDSVCVCSMPIDDAVEADVYQLDLWAGQQLLWSGSFQPSKHVKPRTPGNLTVHPNISHTWLLMWTNPYPTENHLHSELTYMVNVSNDNDPEDFKVYNVTYMGPTLRLAASTLKSGASYSARVRAWAQTYNSTWSDWSPSTTWLNYYEPWEQHLPPKRENGRVPRPPDCPKCPAPEMLGGPSVFIFPPKPKDTLLIARTPEVTCVVVDLDPEDPEVQISWFVDGKQMQTAKTQPREEQFNGTYRVVSVLPIGHQDWLKGKQFTCKVNNKALPSPIERTISKARGQAHQPSVYVLPPSREELSKNTVSLTCLIKDFFPPDIDVEWQSNGQQEPESKYRTTPPQLDEDGSYFLYSKLSVDKSRWQRGDTFICAVMHEALHNHYTQESLSHSPGK | – | 0.084 | 0.08 | 0.001 | 0.00118 | 8.3e-07 | 703000 | – | – | – | – | – | – | – | – | – | – |
| cIL-4Rα-13Rα1_ZW1-cFc (Fc fusion, also called cIL4Rα-IL13Rα1_ZW1-cFc; cIL-4Rα-IL-13Rα1_ZW1-cFc) chain 1: VKVLHEPSCFSDYISTSVCQWKMDHPTNCSAELRLSYQLDFMGSENHTCVPENREDSVCVCSMPIDDAVEADVYQLDLWAGQQLLWSGSFQPSKHVKPRTPGNLTVHPNISHTWLLMWTNPYPTENHLHSELTYMVNVSNDNDPEDFKVYNVTYMGPTLRLAASTLKSGASYSARVRAWAQTYNSTWSDWSPSTTWLNYYEPWEQHLPPKRENGRVPRPPDCPKCPAPEMLGGPSVFIFPPKPKDTLLIARTPEVTCVVVDLDPEDPEVQISWFVDGKQMQTAKTQPREEQFNGTYRVVSVLPIGHQDWLKGKQFTCKVNNKALPSPIERTISKARGQAHQPSVYVYPPSREELSKNTVSLTCLIKDFFPPDIDVEWQSNGQQEPESKYRTTPPQLDEDGSYALVSKLSVDKSRWQRGDTFICAVMHEALHNHYTQESLSHSPGK chain 2: GGVAAPTETQPPVTNLSVSVENLCTVIWTWDPPEGASPNCTLRYFSHFDNKQDKKIAPETHRSKEVPLNERICLQVGSQCSTNESDNPSILVEKCTPPPEGDPESAVTELQCVWHNLSYMKCTWLPGRNTSPDTNYTLYYWHSSLGKILQCEDIYREGQHIGCSFALTNLKDSSFEQHSVQIVVKDNAGKIRPSFNIVPLTSHVKPDPPHIKRLFFQNGNLYVQWKNPQNFYSRCLSYQVEVNNSQTETNDIFYVEEAKCQNSEFEGNLEGTICFMVPGVLPDTLNTVRIRVRTNKLCYEDDKLWSNWSQAMSIGENTDPTPKRENGRVPRPPDCPKCPAPEMLGGPSVFIFPPKPKDTLLIARTPEVTCVVVDLDPEDPEVQISWFVDGKQMQTAKTQPREEQFNGTYRVVSVLPIGHQDWLKGKQFTCKVNNKALPSPIERTISKARGQAHQPSVYVLPPSREELSKNTVSLLCLIKDFFPPDIDVEWQSNGQQEPESKYLTWPPQLDEDGSYFLYSKLSVDKSRWQRGDTFICAVMHEALHNHYTQESLSHSPGK | – | 0.046 | 0.05 | 10 | 9.85 | 0.00234 | 237000 | ~10000 | 8 | 6 | ~20 | 3.02 | 3 | 0.4 | 0.415 | 3.91e-05 | 94400 |
| c44E2 H5k1: caninized rat 44E2 anti-canine IL-31Rα antibody; likely c44E2VH5-cIgGBm (SEQ ID NO: 43) with c44E2VL1-cCk (SEQ ID NO: 45) (antibody) heavy: ELTLQESGPGLVKPSQTLSLTCTVSGFSLTSNGVSWIRQRPGRGLEWMGAISSGGSTYYNSVLKSRISITADTAKNQFSLQLSSMTTEDTAVYYCARRLSGYNYVPFAYWGQGTLVTVSSASTTAPSVFPLAPSCGSTSGSTVALACLVSGYFPEPVTVSWNSGSLTSGVHTFPSVLQSSGLYSLSSMVTVPSSRWPSETFTCNVAHPASKTKVDKPVPKRENGRVPRPPDCPKCPAPEMLGGPSVFIFPPKPKDTLLIARTPEVTCVVVALDPEDPEVQISWFVDGKQMQTAKTQPREEQFAGTYRVVSVLPIGHQDWLKGKQFTCKVNNKALPSPIERTISKARGQAHQPSVYVLPPSREELSKNTVSLTCLIKDFFPPDIDVEWQSNGQQEPESKYRTTPPQLDEDGSYFLYSKLSVDKSRWQRGDTFICAVMHEALHNHYTQESLSHSPGK light: EIVMTQSPASLSLSQEEKVTITCKASQNIYKHLAWYQQKPGQAPKLLIYNANSLQTGVPSRFSGSGSGTDFSFTISSLEPEDVAVYYCQQYYSGDTFGAGTKVELKRNDAQPAVYLFQPSPDQLHTGSASVVCLLNSFYPKDINVKWKVDGVIQDTGIQESVTEQDKDSTYSLSSTLTMSSTEYLSHELYSCEITHKSLPSTLIKSFQRSECQRVD | most similar to the EC50 of the corresponding chimeric 44E2 antibody | – | – | – | – | – | – | – | – | – | – | – | – | – | – | – | – |

Source: patent US20250325630A1, “HOMODIMER FUSION PROTEINS FOR TREATING ATOPIC DERMATITIS” (Intervet Inc., priority 2021, published 2025)
